Test results as given in paper PMC9947658, “Escherichia coli CspA stimulates translation in the cold of its own mRNA by promoting ribosome progression”.
One block for each binder: values may come before it.

Key:
[1] = molecular target: T1, CspA (Escherichia coli, UniProt P0A9X9 1-70); experiment: tryptophan fluorescence quenching; 20°C; text calls the G6A variant oligo 6, table and Fig S10 oligo 5; Trp fluorescence: 1 uM CspA, Buffer H, 20°C; EMSA: Buffer O, 15 or 37°C, 10% native PAGE at 4°C; Fe-EDTA footprinting: Buffer N, 15°C; UV cross-linking at 15°C; buffer compositions not given in the material; details: protein: recombinant; tags: His-tag (pETM11) removed with TEV; single strand
T1 sequence (P0A9X9 whole entry): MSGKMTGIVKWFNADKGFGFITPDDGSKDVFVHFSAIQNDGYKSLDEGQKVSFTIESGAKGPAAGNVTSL

[2] = molecular target: T1, CspA; experiment: tryptophan fluorescence quenching; 20°C; Trp fluorescence: 1 uM CspA, Buffer H, 20°C; EMSA: Buffer O, 15 or 37°C, 10% native PAGE at 4°C; Fe-EDTA footprinting: Buffer N, 15°C; UV cross-linking at 15°C; buffer compositions not given in the material; details: protein: recombinant; tags: His-tag (pETM11) removed with TEV; single strand
[3] = molecular target: Escherichia coli 30S ribosomal subunits (E. coli); experiment: ITC; control experiment: IF1 and 30S subunits, at low temperature, under comparable conditions; ITC buffer

Binder: AACUGAUA (ssRNA) [Oligo 5]
Kd [1]: 4860 ± 240 nM

Binder: AAAUGGUA (ssRNA) [Oligo 2]
Kd [2]: 2300 ± 130 nM

Binder: AACAGGUA (ssRNA) [Oligo 3]
Kd [2]: 1240 ± 50 nM

Binder: AACUAGUA (ssRNA) [Oligo 4]
Kd [2]: 1030 ± 60 nM

Binder: AACUGGUA (ssRNA) [Oligo 1]
Kd [2]: 1240 ± 80 nM

Binder: AAAAAAAAA (ssRNA) [Oligo 7 (poly-A)]
Kd [2]: 5130 ± 1150 nM

Binder: AACUGGAA (ssRNA) [Oligo 6]
Kd [2]: 2080 ± 140 nM

Kd [3]: 806 nM
B1: initiation factor IF1 (natural protein)
chain: MAKEDNIEMQGTVLETLPNTMFRVELENGHVVTAHISGKMRKNYIRILTGDKVTVELTPYDLSKGRIVFRSR
